Assay results taken from patent EP4566632A1 (Nona Biosciences (Suzhou) Co., Ltd., dated 2024).

T1: cynomolgus monkey MSLN protein (Harbour BioMed, Batch #: 2019072202) (cynomolgus monkey)
T1 construct: also called recombinant cynomolgus monkey MSLN ECD His-tag protein
T1 chain: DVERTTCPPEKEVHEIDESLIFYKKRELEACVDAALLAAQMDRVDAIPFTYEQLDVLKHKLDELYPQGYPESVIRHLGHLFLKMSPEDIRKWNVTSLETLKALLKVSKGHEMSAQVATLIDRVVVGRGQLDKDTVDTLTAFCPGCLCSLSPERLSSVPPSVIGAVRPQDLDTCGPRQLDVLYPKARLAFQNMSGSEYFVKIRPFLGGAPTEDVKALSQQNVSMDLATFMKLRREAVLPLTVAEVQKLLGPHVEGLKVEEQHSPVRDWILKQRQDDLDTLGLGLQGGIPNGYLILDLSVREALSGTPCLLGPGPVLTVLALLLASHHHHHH


Legend:
[1] = target: T2, Human MSLN (Acro Biosystems, Cat #: MSN-H5223) (human, UniProt Q13421 296-580, limits assumed); test: ELISA, human MSLN protein coated on plate
T2 construct: extracellular domain; Bought protein; also called human MSLN protein; recombinant human MSLN ECD His-tag protein; not shown: His tag

[2] = target: T1, cynomolgus monkey MSLN protein (Harbour …); test: ELISA, cynomolgus monkey MSLN protein coated on plate

T2 sequence (Q13421 other isoform, or with tags, fused parts or gaps limits assumed): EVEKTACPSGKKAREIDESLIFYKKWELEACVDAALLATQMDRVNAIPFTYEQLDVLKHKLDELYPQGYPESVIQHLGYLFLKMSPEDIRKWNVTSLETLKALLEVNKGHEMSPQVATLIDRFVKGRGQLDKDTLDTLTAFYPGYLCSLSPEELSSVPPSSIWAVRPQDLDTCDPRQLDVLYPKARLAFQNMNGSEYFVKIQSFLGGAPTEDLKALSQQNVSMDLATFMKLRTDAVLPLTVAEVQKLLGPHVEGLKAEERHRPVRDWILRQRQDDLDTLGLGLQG

Row | EC50 [1] | Span [1] | EC50 [2] | Span [2] | Binder
1 | 0.12 nM | 3.42 | 0.05 nM | 2.33 | PR300186 (antibody, human IgG1, kappa, V domains shown, Initial antibody from Harbour H2L2 transgenic mice; also called anti-MSLN antibody PR300186) VH: QVQLQESGPGLVKPSETLSLTCTVSGGSINNYYWSWVRQPPGKGLEWIGYIFYSGSTNSNPSLKSRVIISVDTSKNQFSLKLSSVTAADTAVYYCAREVGRIAVAGWFFDLWGRGTLVTVSS VL: not shown
2 | 0.14 nM | 3.36 | 0.05 nM | 2.43 | PR300186-2 (antibody, human IgG1, kappa, V domains shown, PTM variant of PR300186: Heavy chain N30Q) VH: QVQLQESGPGLVKPSETLSLTCTVSGGSIQNYYWSWVRQPPGKGLEWIGYIFYSGSTNSNPSLKSRVIISVDTSKNQFSLKLSSVTAADTAVYYCAREVGRIAVAGWFFDLWGRGTLVTVSS VL: not shown
3 | 0.1 nM | 3.71 | 0.04 nM | 2.19 | PR300186-10 (antibody, human IgG1, kappa, V domains shown, PTM variant of PR300186: Heavy chain N30Q and N58Q, Light chain S31A) VH: QVQLQESGPGLVKPSETLSLTCTVSGGSIQNYYWSWVRQPPGKGLEWIGYIFYSGSTQSNPSLKSRVIISVDTSKNQFSLKLSSVTAADTAVYYCAREVGRIAVAGWFFDLWGRGTLVTVSS VL: not shown
4 | 0.1 nM | 3.25 | 0.05 nM | 2.36 | PR300186-3 (antibody, human IgG1, kappa, V domains shown, PTM variant of PR300186: Heavy chain N30Q and N58Q) VH: QVQLQESGPGLVKPSETLSLTCTVSGGSIQNYYWSWVRQPPGKGLEWIGYIFYSGSTQSNPSLKSRVIISVDTSKNQFSLKLSSVTAADTAVYYCAREVGRIAVAGWFFDLWGRGTLVTVSS VL: not shown
5 | 0.21 nM | 3.66 | 0.07 nM | 2.67 | PR300186-6 (antibody, human IgG1, kappa, V domains shown, PTM variant of PR300186: Heavy chain N30Q and S59A) VH: QVQLQESGPGLVKPSETLSLTCTVSGGSIQNYYWSWVRQPPGKGLEWIGYIFYSGSTNANPSLKSRVIISVDTSKNQFSLKLSSVTAADTAVYYCAREVGRIAVAGWFFDLWGRGTLVTVSS VL: not shown
6 | 0.13 nM | 3.87 | 0.04 nM | 2.18 | PR300186-8 (antibody, human IgG1, kappa, V domains shown, PTM variant of PR300186: Heavy chain N30Q and S59A, Light chain S31A) VH: QVQLQESGPGLVKPSETLSLTCTVSGGSIQNYYWSWVRQPPGKGLEWIGYIFYSGSTNANPSLKSRVIISVDTSKNQFSLKLSSVTAADTAVYYCAREVGRIAVAGWFFDLWGRGTLVTVSS VL: not shown
7 | 0.22 nM | 3.61 | 0.07 nM | 2.7 | PR300186-5 (antibody, human IgG1, kappa, V domains shown, PTM variant of PR300186: Light chain N30Q) VH: QVQLQESGPGLVKPSETLSLTCTVSGGSINNYYWSWVRQPPGKGLEWIGYIFYSGSTNSNPSLKSRVIISVDTSKNQFSLKLSSVTAADTAVYYCAREVGRIAVAGWFFDLWGRGTLVTVSS VL: not shown
8 | 0.11 nM | 3.85 | 0.05 nM | 2.19 | PR300186-9 (antibody, human IgG1, kappa, V domains shown, PTM variant of PR300186: Light chain S31A) VH: QVQLQESGPGLVKPSETLSLTCTVSGGSINNYYWSWVRQPPGKGLEWIGYIFYSGSTNSNPSLKSRVIISVDTSKNQFSLKLSSVTAADTAVYYCAREVGRIAVAGWFFDLWGRGTLVTVSS VL: not shown
9 | 0.18 nM | 3.47 | 0.07 nM | 2.53 | PR300186-4 (antibody, human IgG1, kappa, V domains shown, PTM variant of PR300186: Heavy chain N30Q and N58Q, Light chain N30Q) VH: QVQLQESGPGLVKPSETLSLTCTVSGGSIQNYYWSWVRQPPGKGLEWIGYIFYSGSTQSNPSLKSRVIISVDTSKNQFSLKLSSVTAADTAVYYCAREVGRIAVAGWFFDLWGRGTLVTVSS VL: not shown
10 | 0.14 nM | 3.85 | 0.04 nM | 2.24 | PR300186-7 (antibody, human IgG1, kappa, V domains shown, PTM variant of PR300186: Heavy chain N30Q, Light chain S31A) VH: QVQLQESGPGLVKPSETLSLTCTVSGGSIQNYYWSWVRQPPGKGLEWIGYIFYSGSTNSNPSLKSRVIISVDTSKNQFSLKLSSVTAADTAVYYCAREVGRIAVAGWFFDLWGRGTLVTVSS VL: not shown
